Series [1] is described as follows: Blood stability: hydrolysis of PAPTPL-peptide derivatives in mouse blood. The class given is in vitro ADME. Particulars: heparinized mouse whole blood, 5 µM from 5 mM DMSO stock, 37 °C, 4 h, UHPLC/UV 312 nm, mean of n = 3. Here is the method: Procedures involving animals were approved by the University of Padova Ethical Committee for Animal Welfare (OPBA) and by the Italian Ministry of Health (Permit Number 846/2021-PR), and conducted with the supervision of the Central Veterinary Service of the University of Padova, in compliance with Italian Law DL 26/2014, embodying UE Directive 2010/63/EU. Mice were anesthetized and blood was withdrawn from the jugular vein and heparinized. Blood samples (1 mL) were spiked with compound (5 µM; dilution from a 5 mM stock solution in DMSO) and incubated at 37 °C for 4 h (the maximum period allowed by blood stability). Aliquots (100 µL) were taken after 10 min, 30 min, 1 h, 2 h, and 4 h, kept on ice, and treated as follows: blood was mixed with 5 volumes of 0.1%TFA in CH3CN, mixed and sonicated for 2 min, and finally centrifuged for 7 min at 12,000× g; the supernatant was collected and analyzed by UHPLC. Quantitative analyses were carried out by UHPLC (1290 Infinity LC System, Agilent Technologies, Milan, Italy) using a reversed-phase column (Zorbax RRHT Extend C18, 1.8 µm, 50 × 3.0 mm, Agilent Technologies) and a UV diode array detector (190–500 nm), at a flow rate of 0.6 mL/min. Solvents A and B were 0.1% TFA in water and CH3CN, respectively. The gradient for B was as follows: 10% for 1 min, then from 10 to 100% in 8.0 min, 100% for 0.5 min, then from 100% to 10% in 1.5 min. The injection volume was 5 µL. The eluate was preferentially monitored at 312 nm (corresponding to an absorbance maximum of psoralenic compounds). The temperature of the column was kept at 25 °C. Concentration of PAPTPL or its derivatives was determined using the following calibration curve, which correlates peak area at 312 nm (y) with compound concentration in the sample (x): y = 6.3321x. The stability in blood was expressed as % of PAPTPL released relative to the amount of the derivative initially spiked in the sample.

A further series deals with erythrocytes. The experiment in a line: Hemolysis assay. Format: cell-based. Particulars: 5 × 10^7 erythrocytes in 1 mL PBS pH 7.4; 1, 0.5, 0.25 or 0.125 nmoles/10^7 cells; 15 min; Abs 540 nm; relative to Triton X-100 1%; n = 3. Here is the method: Hemolysis studies were conducted as described in [48]. Briefly, freshly withdrawn blood samples were centrifuged at 2000× g for 10 min to obtain erythrocytes; the pellet was then washed three times with sterile PBS (pH 7.4). Erythrocytes (5 × 10^7 cells in 1 mL of PBS for each experimental condition) were incubated with the tested compounds at the concentrations of 1, 0.5, 0.25, or 0.125 nmoles/10^7 cells for 15 min. The samples were then centrifuged and the absorbance (Abs) of the supernatant was measured at 540 nm. Triton X-100 1% and PBS were used as positive and negative control, respectively. The percentage of hemolysis was calculated with the following equation:% hemolysis = [(Abssample − AbsPBS)/(AbsTriton X-100 − AbsPBS)] × 100

Another series relates to HPAFII cells. Briefly: Cell uptake of PAPTPL-I-DA7R (HPLC/UV). Format: cell-based, human. Particulars: 5 µM, 15 min, 37 °C, DMEM without Phenol Red and serum, nmoles/mg total protein, n ≥ 9. The protocol:
HPAFII and Pan02 cells were seeded in 6-well plates at a density of 300,000 and 150,000 cells/well, respectively, and grown for 48 h. They were then washed twice with PBS and incubated for 15 min at 37 °C with a solution of 5 µM PAPTPL-I-DA7R in DMEM without Phenol Red and serum. At the end of the incubation, cells were washed twice, 100 µL of PBS were added, and finally the cells were scraped and collected. A volume of 100 µL of CH3CN + 0.1%TFA was added, and the mixture was vortexed and sonicated for 5 min. Samples were finally centrifuged for 5 min at 12,000× g, and the supernatant was collected and the amount of PAPTPL-I-DA7R was quantified by HPLC/UV, as described in Section 2.5 (blood stability). The remaining cell pellets were resuspended in 200 µL of SDS 2%, and the total protein amount of each sample was quantified with the BCA assay. Cell uptake of PAPTPL-I-DA7R was expressed as nmoles of PAPTPL-I-DA7R/total protein.

A further series has as its system NRP-1. The following applies: surface plasmon resonance; cited from earlier work. An excerpt:
(§1) A7R peptide binds to both neuropilin-1 (NRP-1) and vascular endothelial growth factor receptor-2 (VEGFR2/KDR), disrupting their receptor/coreceptor interaction, and impacting, therefore, on angiogenesis and tumor growth. […] Binding of A7R to NRP-1, on the other hand, mainly involves interactions of Arg with the ...
Background: In SPR one partner is held on a chip, and binding of the other changes the refractive index at the surface.

A further series has as its system VEGFR2. Particulars: surface plasmon resonance; cited from earlier work.
Excerpt: as §1

Where a SMILES comes first, the peptide text is derived from it.

Regarding `CC[C@H](C)[C@H](NC(=O)Oc1ccc(CCCOc2ccc([P+](CCCc3ccc(OCCCCOc4c5ccoc5cc5oc(=O)ccc45)cc3)(c3ccccc3)c3ccccc3)cc2)cc1)C(=O)N[C@H](CCCNC(=N)N)C(=O)N1CCC[C@@H]1C(=O)N1CCC[C@@H]1C(=O)N[C@H](CC(C)C)C(=O)N[C@H](Cc1c[nH]c2ccccc12)C(=O)N[C@@H](C(=O)N[C@H](C)C(=O)O)[C@H](C)O` [PAPTPL-I-DA7R] (HELM PEPTIDE1{[O=C(Oc1ccc(CCCOc2ccc([P+](CCCc3ccc(OCCCCOc4c5ccoc5cc5oc(=O)ccc45)cc3)(c3ccccc3)c3ccccc3)cc2)cc1)[*:2]].I.[dR].[dP].[dP].[dL].[dW].[dT].[dA]}$$$$V2.0), the “% of conjugate hydrolyzed (PAPTPL released relative to derivative initially spiked)” value in series [1] is given as “about 30%”. The Hemolysis entry with erythrocytes is recorded as “did not induce any hemolysis”. Moreover, in the series with HPAFII cells, the “Uptake by HPAFII cells relative to cultured Pan02 cells” value is on record as “roughly twice as much”.

Consider `CC(C)C[C@@H](NC(=O)[C@H]1CCCN1C(=O)[C@H]1CCCN1C(=O)[C@@H](CCCNC(=N)N)NC(=O)CCCc1cn(CCOCCOCCOCCOCCNC(=O)Oc2ccc(CCCOc3ccc([P+](CCCc4ccc(OCCCCOc5c6ccoc6cc6oc(=O)ccc56)cc4)(c4ccccc4)c4ccccc4)cc3)cc2)nn1)C(=O)N[C@H](Cc1c[nH]c2ccccc12)C(=O)N[C@@H](C(=O)N[C@H](C)C(=O)O)[C@H](C)O` [PAPTPL-Teg-DA7R], for which, in series [1], the “% of conjugate hydrolyzed (PAPTPL released relative to derivative initially spiked)” value is “about 50%”. In the series on erythrocytes, the Hemolysis entry is on record as “increase in the ability of the derivative (PAPTPL-Teg-DA7R) to lyse erythrocytes”.

As for `CC(C)C[C@@H]1NC(=O)[C@H](Cc2c[nH]c3ccccc23)NC(=O)[C@H]([C@@H](C)O)NC(=O)[C@H](C)NC(=O)[C@H](Cc2cn(CCOCCOCCOCCOCCNC(=O)Oc3ccc(CCCOc4ccc([P+](CCCc5ccc(OCCCCOc6c7ccoc7cc7oc(=O)ccc67)cc5)(c5ccccc5)c5ccccc5)cc4)cc3)nn2)NC(=O)[C@H](CCCNC(=N)N)NC(=O)[C@@H]2CCCN2C(=O)[C@@H]2CCCN2C1=O` [PAPTPL-Teg-cA7R], the “% of conjugate hydrolyzed (PAPTPL released relative to derivative initially spiked)” value in series [1] was “about 50%”. Also, the Hemolysis result in the series on erythrocytes is “dramatic increase in the hemolysis”.

With `C#CC[C@@H]1NC(=O)[C@H](CCCNC(=N)N)NC(=O)[C@@H]2CCCN2C(=O)[C@@H]2CCCN2C(=O)[C@H](CC(C)C)NC(=O)[C@H](Cc2c[nH]c3ccccc23)NC(=O)[C@H]([C@@H](C)O)NC(=O)[C@H](C)NC1=O` [cA7R] (HELM PEPTIDE1{A.T.W.L.P.P.R.[C#CC[C@H](N[*:1])C(=O)[*:2]]}$PEPTIDE1,PEPTIDE1,1:R1-8:R2$$$V2.0), in the series with erythrocytes, the Hemolysis result is on record as “completely ineffective towards erythrocytes”. Besides, the “Affinity for NRP-1” value in the series on NRP-1 is reported as “retain affinity”. In addition, the “Affinity for VEGFR2” value in the series on VEGFR2 was “retain affinity”.

The values are drawn from publication PMC10221132, “DA7R: A 7-Letter Zip Code to Target PDAC” (Pharmaceutics, 2023).
